Data taken from article PMC10413350, “Kinetic and structural characterization of carboxyspermidine dehydrogenase of polyamine biosynthesis” (The Journal of Biological Chemistry, 2023).
Values belong to the molecule of their own block, whether it stands above or below them.

Experiments:
BfCASDH = biological target: T1, BfCASDH (Bacteroides fragilis, UniProt I9VY56); test: intrinsic tryptophan fluorescence quenching (ex […] nm, em […] nm), sigmoidal fit; format: binding
T1 construct: gene HMPREF1080_01141; full length (397 residues modelled per chain), N-terminal hexahistidine tag kept, pET-28b, E. coli BL21 (DE3)
T1 sequence (I9VY56 1-397): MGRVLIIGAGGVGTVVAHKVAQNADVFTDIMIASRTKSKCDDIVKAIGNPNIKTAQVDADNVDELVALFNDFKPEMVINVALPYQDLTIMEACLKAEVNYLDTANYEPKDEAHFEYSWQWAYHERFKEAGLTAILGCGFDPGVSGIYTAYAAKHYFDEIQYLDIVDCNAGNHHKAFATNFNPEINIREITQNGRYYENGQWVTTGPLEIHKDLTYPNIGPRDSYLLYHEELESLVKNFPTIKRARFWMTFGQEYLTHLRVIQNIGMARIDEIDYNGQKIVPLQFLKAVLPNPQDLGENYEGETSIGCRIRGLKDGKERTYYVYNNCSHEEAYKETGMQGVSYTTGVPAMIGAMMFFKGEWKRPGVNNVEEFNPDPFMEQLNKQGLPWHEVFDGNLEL

[1] = biological target: Bacteroides fragilis carboxyspermidine dehydrogenase (Bacteroides fragilis); test: SEC; HiLoad 16/600 Superdex 200, 25 mM Tris pH 8; 100 ul of 10 mg/ml (BfCASDH) or 5 mg/ml (ClCASDH) injected
[2] = biological target: Clostridium leptum carboxyspermidine dehydrogenase (Clostridium leptum); test: as above
purified protein [3] = substrate: NC(=O)C1=CN([C@@H]2O[C@H](COP(=O)(O)OP(=O)(O)OC[C@H]3O[C@@H](n4cnc5c(N)ncnc54)[C@H](OP(=O)(O)O)[C@@H]3O)[C@@H](O)[C@H]2O)C=CC1; test: purified protein; format: biochemical, [Clostridium] leptum; conditions: apparent, 2.5 mM ASA (subsaturating), 20 mM putrescine, 25 mM Tris pH 7.5, varied: cofactor
purified protein [4] = substrate: NCCCCN; test: purified protein; format: biochemical, [Clostridium] leptum; conditions: apparent, 2.5 mM ASA (subsaturating), 150 uM NADPH, 25 mM Tris pH 7.5
purified protein [5] = substrate: NCCCN; test: purified protein; format: biochemical, [Clostridium] leptum; conditions: apparent, 2.5 mM ASA (subsaturating), 150 uM NADPH, 25 mM Tris pH 7.5
purified protein [6] = substrate: NC(=O)C1=CN([C@@H]2O[C@H](COP(=O)(O)OP(=O)(O)OC[C@H]3O[C@@H](n4cnc5c(N)ncnc54)[C@H](OP(=O)(O)O)[C@@H]3O)[C@@H](O)[C@H]2O)C=CC1; test: purified protein; format: biochemical, Bacteroides fragilis; conditions: apparent, 2.5 mM ASA (subsaturating), 20 mM putrescine, 25 mM potassium phosphate pH 7.5, varied: cofactor
purified protein [7] = substrate: NCCCCN; test: purified protein; format: biochemical, Bacteroides fragilis; conditions: apparent, from Hill equation (half-saturation), 2.5 mM ASA (subsaturating), 150 uM NADPH, 25 mM potassium phosphate pH 7.5
purified protein [8] = substrate: NCCCN; test: purified protein; format: biochemical, Bacteroides fragilis; conditions: apparent, from Hill equation (half-saturation), 2.5 mM ASA (subsaturating), 150 uM NADPH, 25 mM potassium phosphate pH 7.5
purified protein [9] = substrate: N[C@@H](CC=O)C(=O)O; test: purified protein; format: biochemical, Bacteroides fragilis; conditions: apparent, from Hill equation (half-saturation), 20 mM putrescine, 150 uM NADPH, 25 mM potassium phosphate pH 7.5, substrate inhibition above 2.5 mM

Molecule: NCCCN [DAP]
- Kd (BfCASDH): 15 ± 2 mM

- stoichiometry N [1]: 2
Molecule: Bacteroides fragilis carboxyspermidine dehydrogenase (enzyme)

- stoichiometry N [2]: 2
Molecule: Clostridium leptum carboxyspermidine dehydrogenase (enzyme)

Molecule: NCCCCN [putrescine]
- Kd (BfCASDH): 11 ± 1 mM

B1: ClCASDH ([Clostridium] leptum DSM 753) (protein)
chain: MGKALIIGCGGVASVAIHKCCQNSGVFEEICIASRTKSKCDALKEKLSGGKTKITTAQVDANSVDELTALINQVKPDVVLNLALPYQDLTIMEACLAAKVNYVDTANYEPEDTAKFEYSWQWAYRKKFEDAGITALLGSGFDPGVTGVFSAYAQKHYFDEINYIDILDCNAGDHGYPFATNFNPEINIREVSAKGSYWEDGHWVETEPMEIKRVYNFPEIGDKDMYLLHHEELESLALNIKGIKRIRFFMTFGQSYLTHLKCLEDVGMTSIEPIEFQGQQIVPLQFLKAVLPDPSSLGPRTKGKTNIGCIFQGKKDGKDKTYYVYNVCDHQECYKEVGSQAVAYTTGVPAMIGAMMLMTGVWNKPGVHNIEEFDPDPFMDALNKWGLPWKESFSPELVD
notes: full length, N-terminal hexahistidine tag, pET-28b, E. coli BL21 (DE3)
- Km (purified protein [3]): 16 ± 2 µM
- kcat (purified protein [3]): 0.22 ± 0.02 s⁻¹
- kcat/Km (purified protein [3]): 13800 ± 900 M⁻¹ s⁻¹
- Km (purified protein [4]): 5000 ± 600 µM
- kcat (purified protein [4]): 0.37 ± 0.01 s⁻¹
- kcat/Km (purified protein [4]): 74 ± 10 M⁻¹ s⁻¹
- Km (purified protein [5]): 6900 ± 1100 µM
- kcat (purified protein [5]): 0.49 ± 0.03 s⁻¹
- kcat/Km (purified protein [5]): 71 ± 12 M⁻¹ s⁻¹

B2: BfCASDH (Bacteroides fragilis CL05T12C13) (protein)
chain: MGRVLIIGAGGVGTVVAHKVAQNADVFTDIMIASRTKSKCDDIVKAIGNPNIKTAQVDADNVDELVALFNDFKPEMVINVALPYQDLTIMEACLKAEVNYLDTANYEPKDEAHFEYSWQWAYHERFKEAGLTAILGCGFDPGVSGIYTAYAAKHYFDEIQYLDIVDCNAGNHHKAFATNFNPEINIREITQNGRYYENGQWVTTGPLEIHKDLTYPNIGPRDSYLLYHEELESLVKNFPTIKRARFWMTFGQEYLTHLRVIQNIGMARIDEIDYNGQKIVPLQFLKAVLPNPQDLGENYEGETSIGCRIRGLKDGKERTYYVYNNCSHEEAYKETGMQGVSYTTGVPAMIGAMMFFKGEWKRPGVNNVEEFNPDPFMEQLNKQGLPWHEVFDGNLEL
notes: full length (397 residues modelled per chain), N-terminal hexahistidine tag kept, pET-28b, E. coli BL21 (DE3)
- Km (purified protein [6]): 57 ± 3 µM
- kcat (purified protein [6]): 0.39 ± 0.05 s⁻¹
- kcat/Km (purified protein [6]): 6700 ± 200 M⁻¹ s⁻¹
- K0.5 (purified protein [7]): 4.2 ± 0.3 mM
- kcat (purified protein [7]): 0.41 ± 0.02 s⁻¹
- kcat/Km (purified protein [7]): 96 ± 7 M⁻¹ s⁻¹
- K0.5 (purified protein [8]): 19.7 ± 3.6 mM
- kcat (purified protein [8]): 0.34 ± 0.03 s⁻¹
- kcat/Km (purified protein [8]): 17 ± 3 M⁻¹ s⁻¹
- K0.5 (purified protein [9]): 2.7 ± 0.1 mM
- kcat (purified protein [9]): 0.64 ± 0.02 s⁻¹
- kcat/Km (purified protein [9]): 230 ± 15 M⁻¹ s⁻¹
